Measurements as given in the supplement of paper PMC11246515.
± gives the standard deviation of the averaged measurements.

Experiment: total protein half-life in vivo (active degradation + dilution); higher = more stable protein
[1] = E. coli NCM3722 delta-clpP delta-lon delta-hslV, growth: N-lim chemostat, doubling time 6 h
[2] = E. coli NCM3722 delta-clpP, growth: N-lim chemostat, doubling time 6 h
[3] = E. coli NCM3722 delta-hslV, growth: N-lim chemostat, doubling time 6 h
[4] = E. coli NCM3722 delta-lon, growth: N-lim chemostat, doubling time 6 h
[5] = E. coli NCM3722 delta-smpB, growth: N-lim chemostat, doubling time 6 h
[6] = wild type E. coli NCM3722, growth: C-lim chemostat, doubling time 3 h
[7] = wild type E. coli NCM3722, growth: C-lim chemostat, doubling time 6 h
[8] = wild type E. coli NCM3722, growth: C-lim chemostat, doubling time 12 h
[9] = wild type E. coli NCM3722, growth: N-lim chemostat, doubling time 6 h
[10] = wild type E. coli NCM3722, growth: N-lim chemostat, doubling time 12 h
[11] = wild type E. coli NCM3722, growth: P-lim chemostat, doubling time 6 h
[12] = wild type E. coli NCM3722, growth: P-lim chemostat, doubling time 12 h

| Sequence | total protein half-life in vivo [1] | total protein half-life in vivo [2] | total protein half-life in vivo [3] | total protein half-life in vivo [4] | total protein half-life in vivo [5] | total protein half-life in vivo [6] | total protein half-life in vivo [7] | total protein half-life in vivo [8] | total protein half-life in vivo [9] | total protein half-life in vivo [10] | total protein half-life in vivo [11] | total protein half-life in vivo [12] |
| --- | --- | --- | --- | --- | --- | --- | --- | --- | --- | --- | --- | --- |
| MSGTLLAFDFGTKSIGVAVGQRITGTARPLPAIKAQDGTPDWNIIERLLKEWQPDEIIVGLPLNMDGTEQPLTARARKFANRIHGRFGVEVKLHDERLSTVEARSGLFEQGGYRALNKGKVDSASAVIILESYFEQGY [P0A8I1] | 4.82 ± 0.066 h | 4.88 h | 3.57 ± 0.011 h | 4.27 ± 0.32 h | 3.5663 ± 0.00095 h | 2.88 ± 0.18 h | 5.4 ± 0.77 h | 10.2 ± 0.33 h | 3.8577 ± 0.0028 h | 7.41 ± 2.2 h | 4.95 ± 0.11 h | 8.63 ± 2.5 h |
| MSGWPRIYYKLLNLPLSILVKSKSIPADPAPELGLDTSRPIMYVLPYNSKADLLTLRAQCLAHDLPDPLEPLEIDGTLLPRYVFIHGGPRVFTYYTPKEESIKLFHDYLDLHRSNPNLDVQMVPVSVMFGRAPGREKGEVNPPLRMLNGVQKFFAVLWLGRDSFVRFSPSVSLRRMADEHGTDKTIAQKLARVARMHFARQRLAAVGPRLPARQDLFNKLLASRAIAKAVEDEARSKKISHEKAQQNAIALMEEIAANFSYEMIRLTDRILGFTWNRLYQGINVHNAERVRQLAHDGHELVYVPCHRSHMDYLLLSYVLYHQGLVPPHIAAGINLNFWPAGPIFRRLGAFFIRRTFKGNKLYSTVFREYLGELFSRGYSVEYFVEGGRSRTGRLLDPKTGTLSMTIQAMLRGGTRPITLIPIYIGYEHVMEVGTYAKELRGATKEKESLPQMLRGLSKLRNLGQGYVNFGEPMPLMTYLNQHVPDWRESIDPIEAVRPAWLTPTVNNIAADLMVRINNAGAANAMNLCCTALLASRQRSLTREQLTEQLNCYLDLMRNVPYSTDSTVPSASASELIDHALQMNKFEVEKDTIGDIIILPREQAVLMTYYRNNIAHMLVLPSLMAAIVTQHRHISRDVLMEHVNVLYPMLKAELFLRWDRDELPDVIDALANEMQRQGLITLQDDELHINPAHSRTLQLLAAGARETLQRYAITFWLLSANPSINRGTLEKESRTVAQRLSVLHGINAPEFFDKAVFSSLVLTLRDEGYISDSGDAEPAETMKVYQLLAELITSDVRLTIESATQGEG [P0A7A7] |  | 7.2 ± 0.25 h | 6.63 ± 0.61 h | 6.38 ± 0.65 h | 6.36 ± 0.2 h | 3.37 ± 0.17 h | 6.4 ± 0.11 h | 12.2 ± 1.3 h | 6.249 ± 0.032 h | 13.3 ± 0.35 h | 6.79 ± 0.28 h | 13.4 ± 1.5 h |
| MSHHHEGCCKHEGQPRHEGCCKGEKSEHEHCGHGHQHEHGQCCGGRHGRGGGRRQRFFGHGELRLVILDILSRDDSHGYELIKAIENLTQGNYTPSPGVIYPTLDFLQEQSLITIREEEGGKKQIALTEQGAQWLEENREQVEMIEERIKARCVGAALRQNPQMKRALDNFKAVLDLRVNQSDISDAQIKKIIAVIDRAAFDITQLD | 4.91 ± 0.66 h |  | 3.22 ± 0.047 h | 4.273 ± 0.011 h | 3.33 ± 0.41 h | 2.55 ± 0.029 h | 4.67 ± 0.56 h | 8.76 ± 2.2 h | 3.65 ± 0.74 h | 5.05 ± 0.53 h | 4.8 ± 0.27 h | 8.64 ± 0.59 h |
| MSHKPAHLLLVDDDPGLLKLLGLRLTSEGYSVVTAESGAEGLRVLNREKVDLVISDLRMDEMDGMQLFAEIQKVQPGMPVIILTAHGSIPDAVAATQQGVFSFLTKPVDKDALYQAIDDALEQSAPATDERWREAIVTRSPLMLRLLEQARLVAQSDVSVLINGQSGTGKEIFAQAIHNASPRNSKPFIAINCGALPEQLLESELFGHARGAFTGAVSNREGLFQAAEGGTLFLDEIGDMPAPLQVKLLRVLQERKVRPLGSNRDIDINVRIISATHRDLPKAMARGEFREDLYYRLNVVSLKIPALAERTEDIPLLANHLLRQAAERHKPFVRAFSTDAMKRLMTASWPGNVRQLVNVIEQCVALTSSPVISDALVEQALEGENTALPTFVEARNQFELNYLRKLLQITKGNVTHAARMAGRNRTEFYKLLSRHELDANDFKE [P0AFU4] | 6.81 ± 1.7 h | 4.73 ± 0.42 h | 4.48 ± 0.2 h | 5 ± 0.17 h | 4.45 ± 0.29 h | 3.25 ± 0.19 h | 5.86 ± 0.38 h | 11 ± 2.4 h | 4.26 ± 0.069 h | 7.72 ± 0.09 h | 5.4 ± 0.19 h | 12 ± 0.29 h |
| MSHRRSTVKGSLSFANPTVRAWLFQILAVVAVVGIVGWLFHNTVTNLNNRGITSGFAFLDRGAGFGIVQHLIDYQQGDTYGRVFIVGLLNTLLVSALCIVFASVLGFFIGLARLSDNWLLRKLSTIYIEIFRNIPPLLQIFFWYFAVLRNLPGPRQAVSAFDLAFLSNRGLYIPSPQLGDGFIAFILAVVMAIVLSVGLFRFNKTYQIKTGQLRRTWPIAAVLIIGLPLLAQWLFGAALHWDVPALRGFNFRGGMVLIPELAALTLALSVYTSAFIAEIIRAGIQAVPYGQHEAARSLGLPNPVTLRQVIIPQALRVIIPPLTSQYLNIVKNSSLAAAIGYPDMVSLFAGTVLNQTGQAIETIAMTMSVYLIISLTISLLMNIYNRRIAIVER |  |  | 3.79 h |  |  |  |  |  | 4.44 ± 0.14 h | 6.58 h |  |  |
| MSHWATFKQTATNLWVTLRHDILALAVFLNGLLIFKTIYGMSVNLLDIFHIKAFSELDLSLLANAPLFMLGVFLVLNSIGLLFRAKLAWAISIILLLIALIYTLHFYPWLKFSIGFCIFTLVFLLILRKDFSHSSAAAGTIFAFISFTTLLFYSTYGALYLSEGFNPRIESLMTAFYFSIETMSTVGYGDIVPVSESARLFTISVIISGITVFATSMTSIFGPLIRGGFNKLVKGNNHTMHRKDHFIVCGHSILAINTILQLNQRGQNVTVISNLPEDDIKQLEQRLGDNADVIPGDSNDSSVLKKAGIDRCRAILALSDNDADNAFVVLSAKDMSSDVKTVLAVSDSKNLNKIKMVHPDIILSPQLFGSEILARVLNGEEINNDMLVSMLLNSGHGIFSDNDELETKADSKESAQK | 5.54 ± 0.5 h | 5.47 h |  | 5.25 ± 0.22 h | 4.7 ± 0.18 h | 2.43 ± 0.039 h | 4.78 ± 0.82 h | 7.86 h | 4.54 ± 0.47 h | 9.01 ± 0.45 h |  | 9.87 ± 0.24 h |
| MSHYHEQFLKQNPLAVLGVLRDLHKAAIPLRLSWNGGQLISKLLAITPDKLVLDFGSQAEDNIAVLKAQHITITAETQGAKVEFTVEQLQQSEYLQLPAFITVPPPTLWFVQRRRYFRISAPLHPPYFCQTKLADNSTLRFRLYDLSLGGMGALLETAKPAELQEGMRFAQIEVNMGQWGVFHFDAQLISISERKVIDGKNETITTPRLSFRFLNVSPTVERQLQRIIFSLEREAREKADKVRD | 5.94 ± 0.77 h |  |  |  | > 8 h | 1.21 ± 0.24 h | 1.87 ± 0.3 h | 2.88 ± 0.52 h |  |  |  |  |
| MSIAVTTTDPTNTGVSTTSSSSLTGSNAADLQSSFLTLLVAQLKNQDPTNPMENNELTSQLAQISTVSGIEKLNTTLGSISGQIDNSQSLQASNLIGHGVMIPGTTVLAGTGSEEGAVTTTTPFGVELQQAADKVTATITDKNGAVVRTIDIGELTAGVHSFTWDGTLTDGSTAPNGSYNVAISASNGGTQLVAQPLQFALVQGVIRGNSGNTLDLGTYGTTTLDEVRQII | 3.99 ± 0.28 h |  |  |  |  | 0.36 ± 0.076 h | 1.65 h | 0.363 h |  |  |  |  |
| MSIDFTPGIINTYHGDIYNCTTNTDNAKTPDTPKWPCDNWEEQQPINSTFSGEGYISDQYDLAQHQLQQINACHTNTTYTNADYSKVVAQLVSLITNIETISSTQLTQQTQSILNQINNIRYEKNKSAECRIIVIANPKPDKAIITKISVEEGIPITFSVQTMFSDTNFIAEQRADLPTNIKDIQSLYQKMTKLYIEHSENKNRMKVFAGTNFIDFNMTGQNLSGFVLTLSRFYFEDLLNINFTDANLGKVRISGEILLG |  | 5.86 h |  |  |  |  |  |  |  | 8.68 h |  | 14.6 h |
| MSIIKEFREFAMRGNVVDLAVGVIIGAAFGKIVSSLVADIIMPPLGLLIGGIDFKQFAVTLRDAQGDIPAVVMHYGVFIQNVFDFLIVAFAIFMAIKLINKLNRKKEEPAAAPAPTKEEVLLTEIRDLLKEQNNRS [P0A742] | 5.9 ± 0.17 h | 5.99 ± 0.24 h | 6.46 ± 0.16 h | 5.9 ± 0.71 h | 6.222 ± 0.036 h | 3.17 ± 0.14 h | 6.12 ± 0.27 h | 12.4 ± 1.9 h | 6.41 ± 0.12 h | 11.5 ± 2.5 h | 5.8 ± 0.23 h | 13.3 ± 1.1 h |
| MSIKEQTLMTPYLQFDRNQWAALRDSVPMTLSEDEIARLKGINEDLSLEEVAEIYLPLSRLLNFYISSNLRRQAVLEQFLGTNGQRIPYIISIAGSVAVGKSTTARVLQALLSRWPEHRRVELITTDGFLHPNQVLKERGLMKKKGFPESYDMHRLVKFVSDLKSGVPNVTAPVYSHLIYDVIPDGDKTVVQPDILILEGLNVLQSGMDYPHDPHHVFVSDFVDFSIYVDAPEDLLQTWYINRFLKFREGAFTDPDSYFHNYAKLTKEEAIKTAMTLWKEINWLNLKQNILPTRERASLILTKSANHAVEEVRLRK [P0A6I3] | 4.81 ± 0.35 h | 5.07 ± 0.72 h | 4.053 ± 0.029 h | 4.54 ± 0.22 h | 4.28 ± 0.39 h | 3.07 ± 0.17 h | 5.71 ± 0.51 h | 8.55 ± 0.56 h | 4.41 ± 0.7 h | 7.123 ± 0.068 h | 5.6077 ± 0.0014 h | 12.5 ± 0.64 h |
| MSIKNLPADYLLAAQQGDIDKVKTCLALGVDINTCDRQGKTAITLASLYQQYACVQALIDAGADINKQDHTCLNPFLISCLNDDLTLLRIILPAKPDLNCVTRFGGVGLTPACEKGHLSIVKELLAHTEINVNQTNHVGWTPLLEAIVLNDGGIKQQAIVQLLLEHGASPHLTDKYGKTPLELARERGFEEIAQLLIAAGA | 5.2 h |  |  |  |  |  |  |  |  |  |  |  |
